# Results as given in US20120093789, “Methods of Modulating Smooth Muscle Cell Proliferation and Differentiation” (published 2012).
# T1: SRF (serum response factor) (UniProt Q9JM73 Q9JM73:1-504)
# T1 sequence: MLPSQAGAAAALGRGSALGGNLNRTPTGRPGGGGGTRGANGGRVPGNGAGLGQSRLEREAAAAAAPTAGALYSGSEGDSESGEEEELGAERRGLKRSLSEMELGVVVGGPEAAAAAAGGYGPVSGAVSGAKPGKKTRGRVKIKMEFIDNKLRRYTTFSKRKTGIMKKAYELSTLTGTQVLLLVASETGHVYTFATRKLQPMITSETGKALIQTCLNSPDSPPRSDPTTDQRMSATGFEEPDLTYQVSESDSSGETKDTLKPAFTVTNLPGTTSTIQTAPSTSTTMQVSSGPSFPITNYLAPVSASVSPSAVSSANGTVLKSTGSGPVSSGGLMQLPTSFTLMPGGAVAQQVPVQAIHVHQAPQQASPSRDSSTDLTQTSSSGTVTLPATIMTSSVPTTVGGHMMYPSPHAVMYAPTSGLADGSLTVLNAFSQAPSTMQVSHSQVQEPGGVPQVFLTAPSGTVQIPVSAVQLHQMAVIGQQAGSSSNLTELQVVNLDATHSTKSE
# B1: miR-143/145 enhancer SRF site (CArG) WT (dsDNA)
# DNA 1: GGGAGCAGCCTTGCCATATAAGGGCAGG
# DNA 2: CCTGCCCTTATATGGCAAGGCTGCTCCC
# B2: miR-143/145 enhancer SRF site mutant (dsDNA)
# DNA 1: GGGAGCAGCCTTGCTACCGAAGGGCAGG
# DNA 2: CCTGCCCTTCGGTAGCAAGGCTGCTCCC
# What was measured:
# [1] = target: T1, SRF (serum response factor); test: EMSA; radiolabeled probe; cold WT competition
# [2] = target: T1, SRF (serum response factor); test: competition; cold mutant competitor; competition with WT or mutant probe indicates specificity of band
Binder,binding result [1],binding result [2]
B1,binds,–
B2,–,no binding
